Patent US8933202B2, “AXL antibodies” (U3 Pharma GmbH, priority 2007, dated 2015)

What was measured:
[1] = tested on: p42/p44 MAP-Kinase; assay: p42/p44 MAP-Kinase phosphorylation ELISA; type: cell-based, human; conditions: 10 μg/ml antibody, 400 ng/ml Gas6; CaSki cervical cancer cells
Method: Next, ELISA experiments were performed in order to investigate whether the rat anti-AXL antibodies of the invention are able to block ligand Gas6-mediated activation of p42/p44 MAP-Kinase. Gas6-mediated p42/p44 MAP-Kinase activation was detected by increased protein (Thr202/Tyr204) phosphorylation. In brief, on the first day, 2×10^4 cells per well were seeded in flat-bottom 96 well plates. The next day, normal growth medium was replaced by serum-free medium to starve cells for 36 h. […] Medium was flicked out and cells were fixed with 4% formaldehyde in PBS (pH 7.5) for 30 min at room temperature. Formaldehyde solution was removed and cells were washed twice with wash buffer (PBS, 0.1% Tween 20). Cells were quenched with 1% H2O2, 0.1% NaN3 in wash buffer and incubated for 20 min at room temperature. Afterwards, the quenching solution was removed, and cells were washed twice with wash buffer and blocked with PBS, 0.5% BSA for 4 h at 4° C. Anti-phospho-p42/p44 MAP Kinase (Thr202/Tyr204) primary antibody (polyclonal rabbit; Cell Signaling #9101) diluted 1:500 in PBS, 0.5% BSA, 5 mM EDTA was added over night at 4° C. On day 4, the antibody solution was removed and the plate was washed 3× with wash buffer. […] Tetramethylbenzidine (TMB, Calbiochem) was added and monitored at 620 nm.

[2] = tested on: serum-starved NIH3T3-AXL cl.7 fibroblasts; assay: Caspase-3/7 assay, Gas6-mediated anti-apoptosis; type: cell-based; conditions: 10 μg/ml antibody, with or without 400 ng/ml Gas6, compared to isotypic control antibody
Text: Induction of apoptosis and activation of caspases can result from a variety of stimuli including growth factor withdrawal, exposure to chemotherapeutic agents or radiation, or initiation of the Fas/Apo-1 receptor-mediated cell death process. […] In the present example we examined whether rat anti-AXL antibodies of the invention interfere with Gas6-mediated anti-apoptosis of serum-starved NIH3T3-AXL cl.7 fibroblasts, and thus induce apoptosis. Apoptosis rates were thereby determined by measurement of the cellular caspase-3/7 activity. For this purpose, NIH3T3-AXL cl.7 cells were seeded at a density of 1.5×10^3 cells per well in black clear-bottom 96 well plates (100 μl/well). The day after, normal growth medium was replaced by serum-reduced medium (DMEM, 0.5% FCS) to starve cells over night for 24 h. […] The cells were washed with PBS, covered with 60 μl of DMEM, 0% FCS, 0.01% BSA, and 10 μl of the respective antibody solution were added. After 1 h incubation at 37° C., 10 μl of DMEM, 0% FCS, 0.01% BSA with or without 3.2 μg/ml mouse Gas6 (R&D Systems) were added (the final concentrations of antibody and Gas6 were 10 μg/ml and 400 ng/ml, respectively), and cells were incubated at 37° C. for another 5 h. […] Using a Victor plate reader (Perkin Elmer), the fluorescence of each well was measured at an excitation wavelength of 485 nm and an emission wavelength of 530 nm.

B1: 11B7: antagonistic rat anti-AXL monoclonal antibody, rat IgG1 (antibody, V domains shown)
VL: DIQMTQAPSSLPASLGDRVTITCRASQDIGNYLRWFQQKPGKSPRLMISGATNLAAGVPSRFSGSRSGSDYSLTISSLESEDMADYYCLQSKESPWTFGGGTKLELK
VH: EVQLQESGPGLVKPSQSLSLTCSVTGYSITSNYWGWIRKFPGDKMEWMGYITYSGSTSYNPSLKSRISITRDTSKNQFFLQLNSVTSEDTATYYCAITTFYYWGQGVMVTVSS
[1]
  ligand-mediated p42/p44 MAP-Kinase activation (phosphorylation): able to reduce ligand-mediated p42/p44 MAP-Kinase activation
[2]
  anti-apoptosis (caspase-3/7 activity): reduced Gas6-mediated anti-apoptosis
